# T1: hANGPTL3(17-170)-His (human, UniProt Q9Y5C1 17-170)
# T1 construct: also called N-terminal coiled-coil domain of hANGPTL3 with a C-terminal hexahistidine tag; Human ANGPTL3 (17-170)-His
# T1 sequence: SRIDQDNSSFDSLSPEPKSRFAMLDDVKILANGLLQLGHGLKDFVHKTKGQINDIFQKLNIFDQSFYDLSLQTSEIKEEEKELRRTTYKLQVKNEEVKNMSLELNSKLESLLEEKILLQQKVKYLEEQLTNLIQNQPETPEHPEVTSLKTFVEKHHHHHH
# T2: mANGPTL3(17-240)-His (Mus musculus, UniProt Q9R182 17-240)
# T2 construct: also called N-terminal coiled-coil domain of ANGPTL3 from Mus musculus with a hexahistidine tag; Mouse ANGPTL3 (17-240)-His
# T2 sequence: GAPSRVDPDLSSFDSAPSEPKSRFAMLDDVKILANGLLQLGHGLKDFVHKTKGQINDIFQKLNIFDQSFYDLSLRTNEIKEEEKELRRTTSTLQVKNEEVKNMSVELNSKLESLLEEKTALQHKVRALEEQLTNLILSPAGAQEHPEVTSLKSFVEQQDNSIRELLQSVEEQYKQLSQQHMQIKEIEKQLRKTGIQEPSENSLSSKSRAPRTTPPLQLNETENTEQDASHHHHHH
# T3: hANGPTL3(17-460)-His (human, UniProt Q9Y5C1 17-460)
# T3 construct: Bought protein (R&D Systems); also called full-length mature human ANGPTL3 with a C-terminal decahistidine tag; Human ANGPTL3 (17-460)-His
# T3 sequence: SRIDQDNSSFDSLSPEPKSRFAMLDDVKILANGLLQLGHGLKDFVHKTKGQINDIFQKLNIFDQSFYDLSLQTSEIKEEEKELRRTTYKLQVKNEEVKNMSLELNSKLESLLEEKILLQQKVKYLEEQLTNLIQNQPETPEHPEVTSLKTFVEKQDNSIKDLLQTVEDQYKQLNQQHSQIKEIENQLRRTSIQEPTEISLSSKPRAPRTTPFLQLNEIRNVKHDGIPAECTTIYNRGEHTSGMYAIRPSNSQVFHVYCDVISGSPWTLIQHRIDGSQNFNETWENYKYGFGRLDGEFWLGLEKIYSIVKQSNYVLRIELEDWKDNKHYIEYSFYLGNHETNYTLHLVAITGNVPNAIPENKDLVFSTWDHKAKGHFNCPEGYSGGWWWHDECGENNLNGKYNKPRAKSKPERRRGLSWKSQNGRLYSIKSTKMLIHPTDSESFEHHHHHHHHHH
# T4: mANGPTL3(17-455)-His (Mus musculus, UniProt Q9R182 17-455)
# T4 construct: Bought protein (R&D Systems); also called full-length mature ANGPTL3 from Mus musculus with a C-terminal decahistidine tag
# T4 sequence: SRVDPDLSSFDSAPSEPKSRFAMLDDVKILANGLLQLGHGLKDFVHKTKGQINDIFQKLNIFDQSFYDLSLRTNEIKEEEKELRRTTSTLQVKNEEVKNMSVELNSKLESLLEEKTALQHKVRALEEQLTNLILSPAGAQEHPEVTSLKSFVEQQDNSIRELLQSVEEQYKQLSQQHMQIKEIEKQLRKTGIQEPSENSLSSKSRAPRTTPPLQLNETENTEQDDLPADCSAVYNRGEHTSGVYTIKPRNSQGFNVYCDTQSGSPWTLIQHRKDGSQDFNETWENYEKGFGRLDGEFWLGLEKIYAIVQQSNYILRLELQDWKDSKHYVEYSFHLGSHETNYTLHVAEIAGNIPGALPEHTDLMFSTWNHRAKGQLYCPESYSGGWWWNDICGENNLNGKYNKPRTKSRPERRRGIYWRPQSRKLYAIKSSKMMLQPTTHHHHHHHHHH
# T5: MfANGPTL3(17-170)-mmH (Macaca fascicularis)
# T5 construct: also called N-terminal coiled-coil domain of ANGPTL3 from Macaca fascicularis with myc-myc-hexahistidine tag; Monkey ANGPTL3 (17-170)-mmH
# T5 chain: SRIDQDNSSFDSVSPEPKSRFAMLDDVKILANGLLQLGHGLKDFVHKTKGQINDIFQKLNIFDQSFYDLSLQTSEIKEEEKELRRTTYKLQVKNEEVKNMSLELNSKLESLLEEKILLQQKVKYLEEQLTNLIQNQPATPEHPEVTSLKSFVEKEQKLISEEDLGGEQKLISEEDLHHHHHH
# T6: rANGPTL3(17-240)-mmH (Rattus norvegicus)
# T6 construct: also called N-terminal coiled-coil domain of ANGPTL3 from Rattus norvegicus with myc-myc-hexahistidine tag
# T6 chain: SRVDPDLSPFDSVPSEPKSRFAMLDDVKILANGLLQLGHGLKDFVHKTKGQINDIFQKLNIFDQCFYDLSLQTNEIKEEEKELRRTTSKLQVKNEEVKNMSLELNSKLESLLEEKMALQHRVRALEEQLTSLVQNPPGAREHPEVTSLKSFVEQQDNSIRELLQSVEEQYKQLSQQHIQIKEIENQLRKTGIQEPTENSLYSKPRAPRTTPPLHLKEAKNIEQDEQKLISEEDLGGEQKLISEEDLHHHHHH
# B1: H4H1276S (antibody, IgG4, V domains shown)
# VH: EVQLVESGGGVIQPGGSLRLSCAASGFTFDDYAMNWVRQGPGKGLEWVSAISGDGGSTYYADSVKGRFTISRDNSKNSLYLQMNSLRAEDTAFFYCAKDLRNTIFGVVIPDAFDIWGQGTMVTVSS
# VL: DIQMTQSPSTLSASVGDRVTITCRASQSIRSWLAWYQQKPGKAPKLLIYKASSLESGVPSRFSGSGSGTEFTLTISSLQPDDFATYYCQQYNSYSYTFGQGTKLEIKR
# Columns and labels:
# Experiment in all cases: SPR Biacore, antigen captured, 37C, pH 7.4, HBS-EP
# hANGPTL3(17-170)-His = target: T1, hANGPTL3(17-170)-His
# Description: (§1) All kinetic binding experiments were performed at 25° C. or 37° C. on a BIACORE™ T200 label-free molecular interaction instrument (GE Healthcare) using a CM5 sensor chip. Briefly, an antigen capture surface was generated by covalently coupling either an anti-mouse IgG-specific antibody (anti-mFc; GE Healthcare; catalog #BR-1008-38) or an anti-pentahistidine-specific antibody (Qiagen; catalog #34660) to the surface of a CM5 sensor chip using a standard amine coupling method.
# mANGPTL3(17-240)-His = target: T2, mANGPTL3(17-240)-His
# Description: as §1
# hANGPTL3(17-460)-His = target: T3, hANGPTL3(17-460)-His
# Description: as §1
# mANGPTL3(17-455)-His = target: T4, mANGPTL3(17-455)-His
# Description: as §1
# MfANGPTL3(17-170)-mmH = target: T5, MfANGPTL3(17-170)-mmH
# Description: as §1
# rANGPTL3(17-240)-mmH = target: T6, rANGPTL3(17-240)-mmH
# Description: as §1
binder,measurement,setting,value
B1,Kd,hANGPTL3(17-170)-His,1.52 nM
same,koff,hANGPTL3(17-170)-His,0.00241 s⁻¹
same,kon,hANGPTL3(17-170)-His,1.59e+06 M⁻¹ s⁻¹
same,t1/2,hANGPTL3(17-170)-His,4.8 min
same,Kd,mANGPTL3(17-240)-His,1.18 nM
same,koff,mANGPTL3(17-240)-His,0.000964 s⁻¹
same,kon,mANGPTL3(17-240)-His,819000 M⁻¹ s⁻¹
same,t1/2,mANGPTL3(17-240)-His,12 min
same,Kd,hANGPTL3(17-460)-His,1.29 nM
same,koff,hANGPTL3(17-460)-His,0.000812 s⁻¹
same,kon,hANGPTL3(17-460)-His,632000 M⁻¹ s⁻¹
same,t1/2,hANGPTL3(17-460)-His,14.2 min
same,Kd,mANGPTL3(17-455)-His,0.408 nM
same,koff,mANGPTL3(17-455)-His,0.000791 s⁻¹
same,kon,mANGPTL3(17-455)-His,1.94e+06 M⁻¹ s⁻¹
same,t1/2,mANGPTL3(17-455)-His,14.6 min
same,Kd,MfANGPTL3(17-170)-mmH,0.625 nM
same,koff,MfANGPTL3(17-170)-mmH,0.00117 s⁻¹
same,kon,MfANGPTL3(17-170)-mmH,1.87e+06 M⁻¹ s⁻¹
same,t1/2,MfANGPTL3(17-170)-mmH,9.9 min
same,Kd,rANGPTL3(17-240)-mmH,0.94 nM
same,koff,rANGPTL3(17-240)-mmH,0.00193 s⁻¹
same,kon,rANGPTL3(17-240)-mmH,2.05e+06 M⁻¹ s⁻¹
same,t1/2,rANGPTL3(17-240)-mmH,6 min
